Residue numbers refer to the chain shown, from its start.

The record followed here is publication PMC3509656.

Assay in all cases: EMSA
Holding throughout (details): 40 mM Tris pH 7.6, 85 mM KCl, 19% glycerol, 4 mg/mL BSA, 0.5 mg/mL calf thymus DNA, 30 min at 30 C; 6% native PAGE in 0.5x TBE

Data set [1] concerns the target T1, TorI-F22I F22I (Escherichia coli K-12 MG1655? (KplE1 prophage)) (UniProt Q2EES9).
T1 sequence: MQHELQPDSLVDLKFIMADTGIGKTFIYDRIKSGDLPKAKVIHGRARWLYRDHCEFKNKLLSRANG

Data set [2] deals with T2, TorI-A46V A46V (Escherichia coli K-12 MG1655? (KplE1 prophage)) (UniProt Q2EES9).
T2 sequence: T1 sequence with I22F, A46V

Data set [3] addresses T3, TorI-Y28F Y28F (Escherichia coli K-12 MG1655? (KplE1 prophage)) (UniProt Q2EES9).
T3 sequence: T1 sequence with I22F, Y28F

The target of data set [4] is T4, TorI-M17V M17V (Escherichia coli K-12 MG1655? (KplE1 prophage)) (UniProt Q2EES9).
T4 sequence: T1 sequence with M17V, I22F

Data set [5] has as its target T5, TorI-R45Q R45Q (Escherichia coli K-12 MG1655? (KplE1 prophage)) (UniProt Q2EES9).
T5 sequence: T1 sequence with I22F, R45Q

Data set [6] addresses T6, TorI-L61S L61S (Escherichia coli K-12 MG1655? (KplE1 prophage)) (UniProt Q2EES9).
T6 sequence: T1 sequence with I22F, L61S

In data set [7] the target is T7, TorI-F15L F15L (Escherichia coli K-12 MG1655? (KplE1 prophage)) (UniProt Q2EES9).
T7 sequence: T1 sequence with F15L, I22F

Take “CATCGAGAAGGCGGTATGGTTTTTCTTTCGGCTTTGCTGCTTCAATCTGCTTAACGGTGAGCATGGGTAAAAATCCGGTGGGTAAAATTATTTTATCCACTTTTTACCCGTCATGGAGTGCGGCTGTCAACGATCTGAAGCGAACCATGACGAACTGTAAATCTACGGAATGCTTGATATTCAGGGGATTTTGCGGACTGGTACGGATGGGAGCGAACTGATAAATGGTGTCCCCTGCAGGAATCGAACCTGCAATTAGCCCTTAGGAGGGGCTCGTTATATCCATT (double strand) [KplE1 attL]”: the binding result in data set [1] is on record as “no binding”; in data set [2], “binds more weakly”; in data set [3] it was “binds more weakly”; in data set [4] it was “binds more weakly”; in data set [5], “binds more weakly”; in data set [6], “binds”. For the same sequence, the binding entry in data set [7] is listed as “binds more weakly”.
